Source: patent US20140322253A1 (FRED HUTCHINSON CANCER RESEARCH CENTER, published 2014)

B1: CCNA1 227-235 peptide FLDRFLSCM (peptide)
peptide: FLDRFLSCM
notes: Synthetic peptide; also called the 9-mer
B2: CCNA1 341-351 peptide SLIAAAAFCLA (peptide)
peptide: SLIAAAAFCLA
notes: Synthetic peptide; also called the 11-mer

Target: T1, HLA A*0201 on T2 cells (human)
T1 construct: MHC class I on the surface of T2 cells; surface level read with FITC-labeled anti-HLA A,B,C (W6/32)
Experiment: HLA stabilization assay on T2 cells, flow cytometry with anti-HLA A,B,C (W6/32)
Experimental: T2 cells were pulsed with 100 μg/ml peptide in serum-free RPMI containing 1 μg/ml β-2-microglobulin (Sigma) for 16 h. Cells were then washed and incubated for 4 h in the presence of 5 μg/ml brefeldin A (Sigma), and then stained with FITC-labeled anti-HLA A, B, C (clone W6/32, BD Bioscience).

Binding result, binds:
SLIAAAAFCL [10-mer SLIAAAAFCL (10-mer 1)]
B1
B2
